{
  "source": "patent US20100093623A1",
  "about": "“COMPOSITIONS AND METHODS FOR […]-LIKE RECEPTOR ACTIVITY AND USES THEREOF” (Burnham Institute for Medical Research, priority 2008, published 2010)",
  "target": "T1, NLRP1 (Homo sapiens, UniProt Q9C000)",
  "T1 sequence (Q9C000 1-1473)": "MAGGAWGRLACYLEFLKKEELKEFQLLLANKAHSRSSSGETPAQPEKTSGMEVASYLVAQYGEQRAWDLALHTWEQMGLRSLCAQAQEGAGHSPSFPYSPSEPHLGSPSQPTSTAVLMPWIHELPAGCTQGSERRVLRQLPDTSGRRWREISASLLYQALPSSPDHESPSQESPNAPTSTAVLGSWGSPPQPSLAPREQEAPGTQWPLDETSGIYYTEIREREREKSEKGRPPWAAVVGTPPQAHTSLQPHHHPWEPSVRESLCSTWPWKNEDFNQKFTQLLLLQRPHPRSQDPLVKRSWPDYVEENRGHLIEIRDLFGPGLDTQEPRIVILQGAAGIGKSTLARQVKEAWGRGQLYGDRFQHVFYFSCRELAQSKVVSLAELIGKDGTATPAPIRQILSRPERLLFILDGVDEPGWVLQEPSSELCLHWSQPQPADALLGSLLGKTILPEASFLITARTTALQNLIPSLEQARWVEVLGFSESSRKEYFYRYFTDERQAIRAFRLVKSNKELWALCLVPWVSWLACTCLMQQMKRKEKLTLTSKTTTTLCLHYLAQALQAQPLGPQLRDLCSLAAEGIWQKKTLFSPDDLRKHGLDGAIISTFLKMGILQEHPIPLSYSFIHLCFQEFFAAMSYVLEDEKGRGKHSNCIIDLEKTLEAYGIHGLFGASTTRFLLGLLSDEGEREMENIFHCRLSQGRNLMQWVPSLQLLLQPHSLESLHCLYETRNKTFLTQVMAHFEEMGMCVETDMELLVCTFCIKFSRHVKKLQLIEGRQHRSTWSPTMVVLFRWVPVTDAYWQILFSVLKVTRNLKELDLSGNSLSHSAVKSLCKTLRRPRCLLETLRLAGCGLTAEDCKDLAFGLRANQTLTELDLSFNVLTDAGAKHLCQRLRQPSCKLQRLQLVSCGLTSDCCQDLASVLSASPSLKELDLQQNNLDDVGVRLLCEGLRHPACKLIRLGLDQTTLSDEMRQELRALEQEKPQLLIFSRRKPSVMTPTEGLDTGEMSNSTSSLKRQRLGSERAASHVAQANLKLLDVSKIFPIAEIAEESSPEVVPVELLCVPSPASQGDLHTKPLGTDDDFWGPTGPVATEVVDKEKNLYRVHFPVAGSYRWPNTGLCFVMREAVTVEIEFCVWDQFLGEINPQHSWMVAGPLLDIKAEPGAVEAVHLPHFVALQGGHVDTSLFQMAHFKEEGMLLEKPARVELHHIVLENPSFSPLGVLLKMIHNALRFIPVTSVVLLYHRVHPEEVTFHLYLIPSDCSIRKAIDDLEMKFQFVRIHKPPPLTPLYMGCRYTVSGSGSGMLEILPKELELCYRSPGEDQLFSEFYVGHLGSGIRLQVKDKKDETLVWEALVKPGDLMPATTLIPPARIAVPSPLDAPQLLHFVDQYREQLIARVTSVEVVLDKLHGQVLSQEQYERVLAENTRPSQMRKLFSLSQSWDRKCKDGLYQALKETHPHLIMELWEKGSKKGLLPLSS",
  "assay": "FITC-ATP binding to NLRP1 by fluorescence polarization assay (FPA)",
  "conditions": "protein 1 μM at excess; NLRP1 0.125 μM; FITC-ATP 10 nM; MDP-LD 1 μM",
  "data": [
    {"molecule": "Bid: control protein (Bcl-2 family) (protein, UniProt P55957 1-195, looked up) BH3-interacting domain death …: MDCEVNNGSSLRDECITNLLVFGFLQSCSDNSFRRELDALGHELPVLAPQWEGYDELQTDGNRSSHSRLGRIEADSESQEDIIRNIARHLAQVGDSMDRSIPPGLVNGLALQLRNTSRSEEDRNRDLATALEQLLQAYPRDMEKEKTMLVLALLLAKKVASHTPSLLRDVFHTTVNFINQNLRTYVRSLARNGMD", "values": [
      {"measurement": "reduction of FITC-ATP binding to NLRP1", "result": "negligible effects"}
    ]}
  ]
}
